The source of these data is the supplement of paper PMC12042874.

± gives the uncertainty stated by the source.

The data set in a line: amyloid nucleation score (Sup35N fusion, yeast selection) (log enrichment); library NNK3; higher = more nucleation; inactive = no reads after selection. In a few lines: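 Three technical output replicates were used for random libraries. Psi-negative yeast expressing peptides of 20 random codons fused to Sup35N were induced with 100 μM copper sulfate for 24 hours and grown 7 days at 30°C on medium lacking adenine and uracil, and input and output plasmid inserts were Illumina-sequenced, excluding sequences with under 100 input reads. The nucleation score is the DiMSum log enrichment of output over input reads, centred on the mode score of non-aggregating sequences.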
Take MDLMPSYSTWKLFFKAI: the amyloid nucleation score entry is “inactive”. As for QLSSYFRGLLFQCHSPQHGY, the entry is “inactive”; as for SLDWCIRVITGGLRSVVRA, “inactive”; as for VGLRNLGFVMFSRWLTPLLI, “inactive”. As for DEGKSNPPF, the entry is “inactive”; as for ACYAAQCWSNF, “inactive”; as for FTRAAREGFFDLY, -0.04 ± 0.66. As for YGFNNWYKPSDLSRTPSESG, the entry is “inactive”.

For the substance RELTRRTYAVANYRLSMSRL, the amyloid nucleation score result is “inactive”. As for HLTVVSSKYITPSGTLMELH, the figure is 0.648 ± 0.27. As for TRYKELSFNTVSLVRYCAGG, the entry is “inactive”; as for FDNKFKHSYYDTLAA, “inactive”. As for ARSDVSCPWSGRMATVCLTV, the entry is “inactive”. As for SEPLYSVVLSDMDELWHCL, the amyloid nucleation score entry was “inactive”. In the case of YCVQYVNDRQL, the amyloid nucleation score is 1.85 ± 0.082. As for VKLSSFCRSNNCWYMRHAFL, the entry is “inactive”; as for DDGSLDLMTKTA, “inactive”.

Regarding VVIHRSSSISGT, the amyloid nucleation score result was “inactive”. As for YDMVLRSHATVAYSHYGFDM, the entry is “inactive”. As for ANCKG, the entry is “inactive”. With TLMGLESVSVYFSVGFLSVY, the amyloid nucleation score entry was “inactive”. For SEKPIFSHPNLIYENGIGWI, the amyloid nucleation score entry was “inactive”. As for MFGWRNSTLAVKAGSDTRLP, the entry is “inactive”. As for VNTEG, the entry is “inactive”. As for QELLPIRYLVE, the entry is “inactive”. As for PKLSRSYVLSMMVTWRNSKV, the amyloid nucleation score entry is “inactive”.

As for MNEKENMMNTQWIVCNTCAK, the amyloid nucleation score entry was “inactive”. As for SITWET, the entry is “inactive”; as for NLKFRRFTGNMCSTPKVCLK, “inactive”.

Consider ITCANALLCDGSRFSM, for which the amyloid nucleation score worked out at 0.741 ± 0.16.

For the substance FSDMCGRSFINSSWGGSAGV, the amyloid nucleation score result is “inactive”.

For TYVRHFVIRFMREGRSLGGR, the amyloid nucleation score result was “inactive”. As for RDTYQSSCDWQW, the figure is 0.077 ± 0.87; as for WLIKYPGYW, “inactive”. As for VHLNPEN, the entry is “inactive”; as for LEQYEKLRGSPKVNRRMCNQ, “inactive”. As for EPNRVLMKVQYRNSPCYTRR, the entry is “inactive”; as for VCRFYIGFTYWLSCC, “inactive”. Take YMRAIHRCCAYLVRGLGSGT: the amyloid nucleation score result was “inactive”. As for WQVTCDFTFNLRFLFGFGDC, the figure is 0.617 ± 0.2; as for NNSAM, -0.178 ± 1.1. As for RIDRSYACALSWHVLYVNR, the figure is 0.436 ± 0.23.

Regarding HLLEVFKDSCRTRGRMLLWG, the amyloid nucleation score result was “inactive”. As to YRDRFAKSSYKSPKMYQYGS, the amyloid nucleation score result is “inactive”.

In the case of RFLYRYG, the amyloid nucleation score entry is “inactive”.

RRMLIGFHVFSYYWDNEYTR registered an amyloid nucleation score of 0.611 ± 0.14. On to AWRKPCWGRVNYFLYIVGAG, for which the amyloid nucleation score was determined as 2.33 ± 0.088.

With YVVREHYNGCATPN, the amyloid nucleation score result is “inactive”. Consider HICLA, for which the amyloid nucleation score entry is “inactive”. As for PRAMLPDWSSALVWWLN, the entry is “inactive”; as for VFLYTNKYRYGCCGFAFTPF, “inactive”.

Turning to IRPSHYIYLRTN, the amyloid nucleation score entry was “inactive”. As for MVLDDYIRKGG, the figure is 0.073 ± 0.33; as for CSNKQSDTSFAYLTIMNMCP, “inactive”; as for EHGMVENRQRRFCLDWWDGM, “inactive”.

In the case of SLHVSTAFVFDIVLSNYLPV, the amyloid nucleation score entry was “inactive”. As for KATLRCCEPYVNDMVVANLK, the entry is “inactive”; as for YMRSIGSIFFILYCMQSAHG, 0.121 ± 0.33; as for KIGSLVKECCGLPVYYALLK, “inactive”. As for LNSKSSLVPNMLWDMREHAI, the figure is 1.04 ± 0.12; as for ALWNTFFLCENTFRMVGFVC, “inactive”; as for YNSFEFGVMSAL, “inactive”.

Consider NSYFGMWVITGFFLASMCIR, for which the amyloid nucleation score entry was “inactive”. As for FLSSVSLGDAHSWTFSR, the entry is “inactive”. As for KGYSRYQSVHRSNRELYNQA, the figure is -0.563 ± 0.64; as for GGLCRGYQDMIMLWNMLQKQ, “inactive”. For the substance FVRSQSCS, the amyloid nucleation score entry was “inactive”.

Turning to TNYYFQNV, the amyloid nucleation score entry was “inactive”.

For NVASM, the amyloid nucleation score result was “inactive”. For DSLIVCTVPHGLDVVSTRRV, the amyloid nucleation score entry was “inactive”.

Consider THFQEPLSESGDRCLDDGYL, for which the amyloid nucleation score result is “inactive”. As for HNLHSYEHRVRTSQAV, the entry is “inactive”; as for DPPHWVDFSRFR, “inactive”; as for FNSPSWTYDRLHFPAEQQAL, “inactive”. As for LINSNVNTVSLFIPFSRMED, the figure is 1.58 ± 0.1.

Regarding WLDRVY, the amyloid nucleation score entry was “inactive”. As for ADFGLHRNCRRGCLGMFFL, the entry is “inactive”. As for ILVHTHLSTLSIRHTASPMT, the entry is “inactive”; as for IFCVGVSLRQ, 0.347 ± 0.3. As for RSNMHC, the entry is “inactive”. TSTYANKALTVLE: the amyloid nucleation score result is “inactive”. As for NEIQAYIRWSI, the entry is “inactive”.

On to VMAHFWRGKLLRSYVDRWRG, for which the amyloid nucleation score result is “inactive”. As to NSHLSKNGQWIPLSAPATTT, the amyloid nucleation score result is “inactive”.

As for QQYYVAWFCDYDLFNCMNLM, the amyloid nucleation score was found to be 1.99 ± 0.095. Take GPLHMANYGYVLNIYLSCRN: the amyloid nucleation score worked out at 2.15 ± 0.06.

As for NYEQCNSHSCMIFLFRTDYS, the amyloid nucleation score entry was “inactive”. For PSPLDSRLEHYRMDSTCRVV, the amyloid nucleation score entry was “inactive”. As for PAADHLAKRCSMICSSSFAL, the entry is “inactive”; as for KSCLGKRLISSFC, “inactive”.

On to GEIRSKTTVLP, for which the amyloid nucleation score entry was “inactive”. For the substance MPIRCSTSLHWTTTMWMTVW, the amyloid nucleation score result is “inactive”. Regarding SIGVRTRLKLCC, the amyloid nucleation score result is “inactive”. As for LNYFISLSGRSLPVSCNQIY, the entry is “inactive”; as for IVCISLCLAAEKQPSGCEFG, 2.01 ± 0.068; as for VKFIYRLEQNEDSAQNSRMG, “inactive”. Regarding FNWFLRWFNPVCKDALWVEC, the amyloid nucleation score entry was “inactive”.

Regarding FGLTTRRRPRNVW, the amyloid nucleation score entry was “inactive”. As for RRCMFIFSYWPRRVLATVLK, the entry is “inactive”. As for TCSDDCFLMKWYEDIRSVVT, the entry is “inactive”; as for NFLRAKDLEYRTV, -0.761 ± 1.1; as for RSAFGIGFPGGYCVLDHYER, “inactive”. As for VVDIKNLYTCLTFCHKYGLN, the figure is 0.988 ± 0.12; as for CINNLYGRNVGSYGECEPFA, “inactive”. On to TPYILLG, for which the amyloid nucleation score entry was “inactive”.

Take GMRRFHNVRINVVSRWWFLE: the amyloid nucleation score came out at 0.545 ± 0.28. As for LYLSLFGQVPYSS, the figure is -0.473 ± 0.98; as for YDGQMVRVRLYPSWEQVYCV, -1.1 ± 1.4. As for FIIIVDYSFMPGSRVCMFSW, the entry is “inactive”. As for LLVSACA, the amyloid nucleation score result is “inactive”.

Regarding SVDDSFLYLYRYKGFCPNF, the amyloid nucleation score result is “inactive”. As for HKNVCRIQRR, the entry is “inactive”. As for YGSNSLPYKTGVYVKLSCN, the entry is “inactive”. As for SKVMVHVIWEIVILFMKSKI, the entry is “inactive”. As for KFNVFPIHGALWTCSVSAYH, the amyloid nucleation score entry was “inactive”.

TDSPLRLKRDYSPNSFCRSG registered an amyloid nucleation score of 0.005 ± 1.1. As for SLLWSLSTYNVRIIHMM, the entry is “inactive”; as for GQKDCYFLIMYIREVLNRYT, “inactive”. As for IKQDVASSVFM, the entry is “inactive”; as for SRKALVYGSVKRLSIMSAWV, -0.626 ± 0.96; as for RWWTCSQSNSGVIFEQIYQT, “inactive”. As for SLFSEMSVYMQDYFWVT, the entry is “inactive”.

For the substance RWLVT, the amyloid nucleation score entry was “inactive”.

Take NLRFIRGANSA: the amyloid nucleation score entry was “inactive”. The substance DMTGGVCHFWSCCVSCNK yielded an amyloid nucleation score of 2.96 ± 0.072. As for NLRSISF, the entry is “inactive”; as for NLLSLVFIRWGNYRRFKMFR, 0.77 ± 0.22; as for SAASYLTHDVN, “inactive”.

Turning to DISIGQRVRCTIFSGIGPLT, the amyloid nucleation score is -0.913 ± 2.5.

On to MIVARMLVSIYKSWTIILRY, for which the amyloid nucleation score entry is “inactive”. As for HRLTCELFTWMPAEVCVWAD, the entry is “inactive”; as for TWMKMSTEWRTLDLDCWNSS, 1.34 ± 0.13.
